Sequences and labels used below:
B1: Peak 2 GG (dsDNA)
DNA 1: GCAATCGCGGGGTAGGGCCGTGGAAGGAGAGCCTGCCT
DNA 2: AGGCAGGCTCTCCTTCCACGGCCCTACCCCGCGATTGC
B2: Peak 2 G (dsDNA)
DNA 1: GCAATCGCGGGGTAGCGCCGTGGAAGCAGAGCCTGCCT
DNA 2: AGGCAGGCTCTGCTTCCACGGCGCTACCCCGCGATTGC
B3: Peak 24 GG (dsDNA)
DNA 1: TCATGTCGAGGTTAGGTTGTTCGTCGGACACAGACATT
DNA 2: AATGTCTGTGTCCGACGAACAACCTAACCTCGACATGA
B4: Peak 24 G (dsDNA)
DNA 1: TCATGTCGAGGTTAGTTTGTTCGTCGCACACAGACATT
DNA 2: AATGTCTGTGTGCGACGAACAAACTAACCTCGACATGA

The target of one series is T1, His-GlnR (Mycobacterium smegmatis (mc2 155?)) (UniProt A0R4C4).
T1 sequence: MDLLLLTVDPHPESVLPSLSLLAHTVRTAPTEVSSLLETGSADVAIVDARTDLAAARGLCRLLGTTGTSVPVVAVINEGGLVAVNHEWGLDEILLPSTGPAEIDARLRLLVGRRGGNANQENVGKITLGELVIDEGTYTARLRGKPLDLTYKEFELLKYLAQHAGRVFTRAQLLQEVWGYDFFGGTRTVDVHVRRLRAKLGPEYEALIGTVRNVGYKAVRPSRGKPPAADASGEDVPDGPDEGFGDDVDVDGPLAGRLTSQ
Kind of series: EMSA. Particulars: EMSA: 0.4 ng DIG-labelled DNA, 0-0.9 ug His-GlnR, 0.5 ug poly d(A-T), 25 mM Hepes pH 7.9, 150 mM NaCl, 2.5 mM MgCl2, 37 C, 15 min.
As to “GACGCGTCCATTCGGTTGTCCTCCCCGTTGTCGACGGGCCCGAAGCTACCCACGCCATGTTGCGACGACGTTGCGGTTGCGTTCGAACCCGTTGACATCAGCCAGAATTGACGCACGCGTCGGACTACCAGCGGTAGTCGAGGAACTTCCCGTCGAAGGTCACCACCACCCGGTCCCCGTCTGGATCGGGACGACGCTGGATGTCCACCTTGAAGTTGATGGCGCTCATG (double strand) [peak 42 MSMEG5358 promoter]”, the binding entry is reported as “binds”. The same measure, in the same setting: in the case of “GAGTGTTTGCGGGGCGTTACAGCCGGCGTTGGCTGTGCAACGACCTGTGCTTTGTCGGCGGGAAACATGAGCGTAACAGTGATCGGGATTGCGTTCACTTTCCGGAAACGCAACGGCAGCACCGGCGAAACGCCGGCAACAGAATCTCATCGGGAGGCCGATCCGTCGGCGCACTTCCCAAGGAGGTTCACACAAA (double strand)” it was “binds”. Still for that read-out and setting: as for “AACGGTGTGCTTCCTCCGCTGTAGGTGGATCACCGCGTGAAGCGGGTGACCGGTGCAGGGTCGGCGCAACTTACTGCGCTTGGAAAATGCTCGCGCAGGAACGTTTCGGTGGATCCCGTCGGCAATGTCGGTGACGTTAACTCTGCACGGCCCCGCGTTACGTTGTGGTGACCTGACGCAACGGATTTCGTTGTGTGTCCGGTAG (double strand) [peak 22 MSMEG2526 promoter]”, the entry is “binds”. Same read-out and setting: in the case of “AGCTTGCCTACGAGCTCGAGGAGGCGCGGCCCTGGGCGCGCATACAAGATGTCACCGCGACCAAGCAGCCGCGTAAGCGGGCCGCGAAGAAGGCCACGAAAACCACGGAGTAGGGCACAAACCGGCGTGGCGCGTGACATGACCCCGTAACCCGGGCCGTGTCCTGTTAACGAACTCGACACCGCGAACGGCTGCGGGTGAAACATCGGGCTCGCAGCATCCCTCATT (double strand) [peak 21 MSMEG2522 promoter]” it was “binds”; in that of “GCGCTGCTGGTCATGGGTTTTCTCTCTGGCTAGGGGCGCTGCCGCCAGCTCTTACCTGTCAGATGACAGATAACAATGGGCGCGTGTCCTCGGCGTCACCCGAATGTTTCGTTCATGTAGCCGTCGGTAAGCATTCGGTTGCAGAACCCTCACCGCCCGTGGGCCTGTCACAATCGCCGGTATGCCCGCCCCCGACCTCGTGCAGCGCCACATCGACG (double strand) [peak 17 MSMEG2184 promoter]”, “binds”. “GTACGGGTCGCGCACCTTGTCGGTGAGGATGAGGATCGCATCGACGATGCCCCAGATGAAGGCACCGATGCCACACGTCACCAGGCCCACGATCAGCTGCGCGATGCCGAGCCCGGTCTGCCCCAGATAGATCCGCCCGAACCCGACGAAACCGACCAGGCCGATCAACTGCAACAGGC (double strand) [MSMEG3224 promoter (negative control)]”: the binding result is reported as “no binding”.

For “AAGCCGGATCCAGACGTGTGTTTCCGCGGCATCGGGCGACTGTGTGCTCGATGTTTAGACTTTACTGCTTGGTAACCTACGGAGCCGTAGGTTACGGTAGCGTAGGTAGACGAAAGGAGGGTTGCCAATGGCTGTTACCGACGTCCCGGCGTTCGCGCATCTGACCGAAGCCGATATCGAGAACCTGGGTATCGAGC (double strand) [peak 13 MSMEG1886 promoter]”, the binding entry is recorded as “binds”.

The target in the next series is T2, His-GlnR (Mycobacterium smegmatis, UniProt A0R4C4 1-261).
T2 sequence: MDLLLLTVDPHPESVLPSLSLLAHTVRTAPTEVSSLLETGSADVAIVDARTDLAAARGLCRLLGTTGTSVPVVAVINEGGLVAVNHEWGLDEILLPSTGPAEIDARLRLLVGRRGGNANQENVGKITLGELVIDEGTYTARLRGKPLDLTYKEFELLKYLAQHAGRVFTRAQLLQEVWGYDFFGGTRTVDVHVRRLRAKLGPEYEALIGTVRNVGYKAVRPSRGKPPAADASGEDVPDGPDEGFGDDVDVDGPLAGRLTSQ
Briefly: EMSA; EMSA: 0.4 ng DIG-labelled DNA, 0-0.9 ug His-GlnR, 0.5 ug poly d(A-T), 25 mM Hepes pH 7.9, 150 mM NaCl, 2.5 mM MgCl2, 37 C, 15 min. To be noted: protein: recombinant; tags: N-terminal His6 (pET28b); chain copies: 2; label: DIG 3'-end; blunt.
Consider B1, for which the binding result was “no binding”. The same measure, in the same setting: in the case of B2 it was “no binding”. On the same count and under the same terms, as for B3, the entry is “no binding”. Same read-out and setting: as for B4, the entry is “no binding”.

The values are drawn from PMC3662644, “Genome wide analysis of the complete GlnR nitrogen-response regulon in Mycobacterium smegmatis”.
